The source of these data is US8247535B2, “Directed evolution of GRG31 EPSP synthase enzyme” (Athenix Corp., priority 2008, dated 2012).

Substitutions are numbered along the chain they refer to. Names may count otherwise.

What is called Km is the substrate concentration at which the rate is half of its maximum.

The test system of data set [1] is GRG36. The note with it: for fold higher thermostability at 37° C. than wild-type GRG36: relative to wild-type GRG36. The method, then: Following induction, each GRG36 protein variant was purified by affinity chromatography to a cobalt resin (Novagen). The purified proteins were tested for enzymatic activity following heating for 0, 4 and 6 hours at 37° C.
Data set [2] has as its system GRG36. As to the kind of experiment: Kinetic constants of GRG36 enzymes (Km, Ki, Vmax). It counts as biochemical. The following applies: for Km: substrate phosphoenolpyruvate; for Ki: glyphosate, (−)x-intercept of Kobs vs. glyphosate concentration. As for the experimental part:
The syngrg36 DNA library was transformed into E. coli strain BL21*DE3 star (Invitrogen) for induction of protein expression. Following transformation, individual colonies were plated on 1×M63 medium containing 25 mM glyphosate to select for clones that had retained enzymatic activity and growth tolerance. Individual colonies were picked and arrayed into 384-well plates to create a mutagenized library for enzymatic activity screening. Two 384-well plates were created in this manner. Enzymatic activity screening was carried out as follows. Library clones were pinned into 96-well blocks containing LB medium and were grown to A600=0.6. IPTG was then added (0.5 mM) and the blocks were incubated overnight at 20° C. to induce protein expression. Next, protein extracts were prepared from individual cultures using POPCULTURE® reagent (Novagen) and the enzymatic activity was measured as disclosed in U.S. patent application Ser. No. 11/651,752, filed Jan. 10, 2007, herein incorporated by reference in its entirety. […] These 6 were selected for further characterization.
Additionally, enzymatic assays were carried out to calculate the kinetic constants for substrate binding affinity (Km), glyphosate binding (Ki) and enzymatic rate (Vmax). Briefly, each enzyme was titrated with the substrate phosphoenolpyruvate and the linear enzymatic rate was plotted versus the substrate concentration. This plot was fit to the Michaelis-Menton equation to calculate the substrate concentration that produced one-half of the maximal rate (Km), and the maximal rate obtained at saturating substrate was divided by the enzyme concentration to yield Vmax. Next, additional substrate titrations were carried out at various glyphosate concentrations, and the apparent binding constant at each glyphosate concentration (Kobs) was plotted against the glyphosate concentration to yield a straight line. The Ki was measured as (−)x-intercept.

Data set [3] deals with GRG31 EPSP synthase. As to the kind of experiment: Kinetic analysis of GRG31 variants (Ki for glyphosate, Km for PEP, Vmax). Format: biochemical. Also noted: Vmax: unit not given here. The following applies: for Ki: Ki for glyphosate, calculated from plot of Km(app) vs. glyphosate concentration; for Km: Km for PEP; for Vmax: unit not given. The method, then: GRG31 variants L3P2b11, L3P2c11 and L4e11, and L5e3 were characterized by enzymatic assays as described herein, and compared to the native GRG31 enzyme. For each enzyme the apparent Km (Km(app)) was determined at each of several glyphosate concentrations, and a plot of Km(app) vs. glyphosate concentration was used to calculate the Ki for each enzyme. The thermostability for each enzyme was assessed by incubating the enzyme at 37° C. for 16 hours, and then quantifying the enzymatic activity remaining (as Vmax) vs. control enzyme that was incubated at 4° C.

Data set [4] relates to GRG31 EPSP synthase. As to the kind of experiment: Thermostability of extracts of GRG31 point mutants at 37° C. It counts as biochemical. The following applies: for thermostability of extracts of error prone PCR clones: extracts of 95 clones, in words. As for the experimental part:
To improve the thermostability of GRG31, error prone PCR mutagenesis of GRG31 was performed. Forty-five thousand (45,000) clones were plated onto 50 mM glyphosate, and ninety-five (95) clones were picked.
To further investigate the contributions of various substitutions in these positions, several point mutations were generated at positions corresponding to amino acid positions 95, 206, and 215 of GRG31. Extracts of point mutants were tested for thermostability at 37° C.: […]

In data set [5] the test system is GRG31 EPSP synthase. In words: Thermostability of purified GRG31 variant proteins (4 hrs at 37° C.). It counts as biochemical. The following applies: in words. As for the experimental part:
GRG31 variants L3P2b11, L3P2c11 and L4e11, and L5e3 were characterized by enzymatic assays as described herein, and compared to the native GRG31 enzyme. For each enzyme the apparent Km (Km(app)) was determined at each of several glyphosate concentrations, and a plot of Km(app) vs. glyphosate concentration was used to calculate the Ki for each enzyme. […]
Three variants (6b2, 6e7, and the triple EK (N95S A206V E215K; SEQ ID NO:20)) were grown, their proteins purified, and the thermostability of the proteins analyzed in more detail.

Data set [6] deals with GRG31 EPSP synthase. It counts as biochemical. As for the experimental part:
The thermostability of several variants of GRG31 was analyzed by measuring survival of activity at 37° C.

The subject of a further data set is BL21*DE3 cells. In words: Glyphosate growth screen on agar plates. Format: cell-based, E. coli. The following applies: 1×M63 minimal medium; 0.05 mM IPTG; expression construct pAX1945. An excerpt:
A glyphosate growth screen was developed. […] Library 1 was cloned into pAX1945 between the MfeI and AlwN1 restriction sites.
Clone pAX3625 contains a grg31 variant having an in-frame stop codon that disrupts the GRG31 open reading frame.

Setting [7] is: extracts of point mutants, Table 8.
[8] abbreviates: extracts, separate experiment, Table 9.

B1: GRG36(ace7): GRG36 protein variant, SEQ ID NO:27, encoded by syngrg36(ace7) (protein)
chain: MKNQNFDAKARSPWTPLKGVNKISVSPSKGRINGTVTIPGSKSLTNRALIISSLASGKSKVQGILKSDDSFWCLDSLKKLGVNVKIQGDIAFIEGNGGKWESGDLYIGAAGTIARFLPGALAVSGTGIWELEASKSMSKRPISPQVDALKELGAEITYLSDQGYYPLLVKGKQLNGGEVELSGRISSQFISGLLIASPYLNDPIKINIKDHIVQHSYVLLTLELMKKFGAKVKYDSSLKEIVVYPSKYTPQDINLEADVSTACYFLALAAVTNGKVQIDNLTYETKQPDIKMVDILERMGCKVTRGSSFIEIEGVSQLKGGFEISMREMSDQVLTLAAIAPFADEPITIKDVEHIRHHESNRISVLVDSLSRLGIIVEEFKDGLKVYPGNPKATLLDTHDDHRVAMALSLIGSRVEGIQINDPGCVSKTCPQYFELLEKLGLNIIKH
modifications: GRG36 variant (GRG36(ace7))
As to B1, in the data set with GRG36 [1], the “Half-life at 37° C.” value stood at 18.8 h and the “fold higher thermostability at 37° C. than wild-type GRG36” value is listed as 7.5 fold. In the data set with GRG36 [2], the “Vmax” value turned out to be 1.8 nmol/min/µg and the Km was 9.8 µM. Besides, in the data set on GRG36 [2] (1 mM glyphosate), the “activity at 1 mM glyphosate compared with GRG36” value is “very similar activity”.

B2: GRG36(ace8): GRG36 protein variant, SEQ ID NO:28, encoded by syngrg36(ace8) (protein)
chain: B1 chain with I90T, Q145L, K350T, L410M
modifications: GRG36 variant (GRG36(ace8))
Take B2: in the data set with GRG36 [1], the “Half-life at 37° C.” value is 7.3 h and the “fold higher thermostability at 37° C. than wild-type GRG36” value was found to be 2.5 fold. For the same molecule, in the data set with GRG36 [2], the “Vmax” value is 6.8 nmol/min/µg, the Ki amounted to 435 µM and the Km was 11 µM.

B3: GRG36: wild-type GRG36 EPSP synthase, SEQ ID NO:4 (protein)
chain: B1 chain with I90T, Q145L
modifications: derived from organism isolated from soil
B3: in the data set with GRG36 [1], the “Half-life at 37° C.” value was 2.5 h. In addition, in the data set on GRG36 [2], the “Vmax” value was 8 nmol/min/µg, the Ki was determined as 421 µM and the Michaelis-Menten constant (Km) turned out to be 6.3 µM.

B4: 6b2: GRG31 variant N95→S, A206→V, SEQ ID NO:18 (protein)
chain: MNQQVITLTHPSKKIQGTVQLTGSKSESNRALIIQSLSKGQVEIANLSEAADTVTLNRVLQIASDPKPGFNTIDIGPAGTAMRFLTAYLNLVKGSFILTGTERMQQRPIGILVDAMKEIGADIHYDKKVGYPPLKIEGGLFQEKDRVKIKGNISSQYISALLLIAPALKKGLTLEIEGELTSRPYVSMTLDMLKSVGIQHEWKNNVIKIAPQAFEKQTIYVEPDWSAASYWYAIAALADANASIVLPGLRKNSLQGDIAIISIMEHFGVQSSFESDGLHLNKKVIGSDVSLFNFKECPDLAQTVVVVAAALKRDVSFTGLETLKIKETDRIAALQKEIAKFGAELIEDGDTYHLKTAQVYQPEEVTFDTYEDHRMAMAFAPLALVFDQIKIAEPQVVEKSYPDFWNHLQAQAFVIE
modifications: GRG31 variant (clone 6b2)
As to B4, at GRG31 EPSP synthase [3], the Ki is 92 µM, the Km worked out at 6.5 µM and the Vmax was determined as 34. For the same molecule, the “improvement in Km for PEP relative to GRG31” value in the data set on GRG31 EPSP synthase [3] (relative to GRG31, in words) is recorded as “improved (lower)”. For the same molecule, in the data set with GRG31 EPSP synthase [4], the “thermostability of extracts of error prone PCR clones” value is “increased thermostability”. The “Percent of Wt GRG31 activity (4 hrs at 37° C.)” value (shortened to “Percent of Wt GRG31 activity”) with GRG31 EPSP synthase [4] (setting [7]) was found to be 228%. For the same molecule, the “Percent of Wt GRG31 activity” value in the data set with GRG31 EPSP synthase [4] (setting [8]) is 139%. Also, in the data set with GRG31 EPSP synthase [5], the “thermostability compared to wild-type GRG31” value is “increased thermostability”.

B5: 6e7: GRG31 variant E215→K, SEQ ID NO:19 (protein)
chain: B4 chain with S95N, V206A, E215K
modifications: GRG31 variant (clone 6e7)
As to B5, at GRG31 EPSP synthase [3], the Ki is 111 µM, the Km amounted to 3.4 µM and the Vmax was found to be 62. For the same molecule, the “Vmax improvement over GRG31” value with GRG31 EPSP synthase [3] (relative to GRG31) is 2 fold. For the same molecule, in the data set on GRG31 EPSP synthase [3] (relative to GRG31, in words), the “Vmax relative to GRG31” value is given as “improved” and the “improvement in Km for PEP relative to GRG31” value is listed as “improved (lower)”. Moreover, the “thermostability of extracts of error prone PCR clones” value with GRG31 EPSP synthase [4] is recorded as “increased thermostability”. For the same molecule, the “Percent of Wt GRG31 activity” value with GRG31 EPSP synthase [4] (setting [7]) is given as 213%. Besides, in the data set on GRG31 EPSP synthase [4] (setting [8]), the “Percent of Wt GRG31 activity” value was 152%. Also, the “thermostability compared to wild-type GRG31” value with GRG31 EPSP synthase [5] is listed as “increased thermostability”.

B6: Triple EK: GRG31 variant N95S A206V E215K, SEQ ID NO:20 (protein)
chain: B4 chain with E215K
modifications: GRG31 variant (triple EK)
As to B6, at GRG31 EPSP synthase [3], the Ki was 48.2 µM, the Km turned out to be 7.2 µM and the Vmax is reported as 33. In addition, the “improvement in Km for PEP relative to GRG31” value in the data set with GRG31 EPSP synthase [3] (relative to GRG31, in words) is “improved (lower)”. Further, the “thermostability compared to wild-type GRG31” value with GRG31 EPSP synthase [5] was “increased thermostability”.

B7: GRG31: native (wild-type) GRG31 EPSP synthase, SEQ ID NO:2 (protein)
chain: B4 chain with S95N, V206A
In the case of B7, at GRG31 EPSP synthase [3], the Ki is 73 µM, the Km came to 23 µM and the Vmax is on record as 29.3. Moreover, the “t1/2 at 37° C.” value with GRG31 EPSP synthase [6] was 2.7 h. The “glyphosate concentration of agar plates on which cells grow” value in the data set on BL21*DE3 cells is given as “up to 50 mM”.

B8: L5e3: GRG31 variant P77→T, SEQ ID NO:17 (protein)
chain: B4 chain with P77T, S95N, V206A
modifications: GRG31 variant (clone L5e3)
As for B8, on GRG31 EPSP synthase [3], the Ki is 507 µM, the Km was determined as 11.4 µM and the Vmax was determined as 3.6. Besides, in the data set with GRG31 EPSP synthase [6], the “t1/2 at 37° C.” value was determined as 10.8 h. Moreover, the “thermostability at 37° C. compared with GRG31” value in the data set on GRG31 EPSP synthase [6] (survival of activity at 37° C., in words) is recorded as “improved thermostability”.
